We go through six molecules from article PMC8892516, “Intragenic suppressors unravel the role of the SCREAM ACT-like domain for bHLH partner selectivity in stomatal development” (Proceedings of the National Academy of Sciences of the …, 2022).

As a reminder, the stoichiometry N is a count of units in the complex or per binding partner. What is called Kd is a measure of binding affinity in units of concentration.

B2: SCRMΔC (1-404), recombinant (domain or fragment, Arabidopsis thaliana, UniProt Q9LSE2 1-404, looked up)
chain: MGLDGNNGGGVWLNGGGGEREENEEGSWGRNQEDGSSQFKPMLEGDWFSSNQPHPQDLQMLQNQPDFRYFGGFPFNPNDNLLLQHSIDSSSSCSPSQAFSLDPSQQNQFLSTNNNKGCLLNVPSSANPFDNAFEFGSESGFLNQIHAPISMGFGSLTQLGNRDLSSVPDFLSARSLLAPESNNNNTMLCGGFTAPLELEGFGSPANGGFVGNRAKVLKPLEVLASSGAQPTLFQKRAAMRQSSGSKMGNSESSGMRRFSDDGDMDETGIEVSGLNYESDEINESGKAAESVQIGGGGKGKKKGMPAKNLMAERRRRKKLNDRLYMLRSVVPKISKMDRASILGDAIDYLKELLQRINDLHNELESTPPGSLPPTSSSFHPLTPTPQTLSCRVKEELCPSSLPSP
notes: SCREAM (SCRM, ICE1), Arabidopsis thaliana, At3G26744, residues 1-404; the purification methods tell thrombin cleavage; also called SCRM1ΔC; source: E. coli BL21, purified (glutathione resin, thrombin, Superdex-200); not shown: GST, N-terminal, cleaved
B5: ΔNSPCH (98-364), recombinant (domain or fragment, Arabidopsis thaliana, UniProt Q700C7 98-364, looked up)
chain: GQQKMSHVTVERNRRKQMNEHLTVLRSLMPCFYVKRGDQASIIGGVVEYISELQQVLQSLEAKKQRKTYAEVLSPRVVPSPRPSPPVLSPRKPPLSPRINHHQIHHHLLLPPISPRTPQPTSPYRAIPPQLPLIPQPPLRSYSSLASCSSLGDPPPYSPASSSSSPSVSSNHESSVINELVANSKSALADVEVKFSGANVLLKTVSHKIPGQVMKIIAALEDLALEILQVNINTVDETMLNSFTIKIGIECQLSAEELAQQIQQTFC
notes: BLI and ITC name it only SPCH; ΔNSPCH (98-364) is the only long recombinant SPCH construct that the methods list; also called purified SPCH; source: E. coli BL21, purified (glutathione resin, thrombin, Superdex-200); not shown: GST, N-terminal, cleaved
B6: ΔNFAMA, recombinant (domain or fragment)
chain: ESQRMTHIAVERNRRKQMNEHLRVLRSLMPGSYVQRGDQASIIGGAIEFVRELEQLLQCLESQKRRRILGETGRDMTTTTTSSSSPITTVANQAQPLIITGNVTELEGGGGLREETAENKSCLADVEVKLLGFDAMIKILSRRRPGQLIKTIAALEDLHLSILHTNITTMEQTVLYSFNVKITSETRFTAEDIASSIQQIFSFIHANTNISGSSNLGNIVFT
modifications: Limits not printed. Start set by analogy with the printed ΔNSPCH 98-364, which starts one residue before its annotated bHLH (99); FAMA bHLH is 194-245. Runs to the native C-terminus, including the …

What all share (settings): both partners purified
Assay [1] has as its target T1, FAMA (ΔNFAMA) (Arabidopsis thaliana, Limits not printed. Start set by analogy with the printed ΔNSPCH 98-364 (one residue before the annotated bHLH). Runs to the native C-terminus. Tag or fusion carrier omitted.).
T1 chain: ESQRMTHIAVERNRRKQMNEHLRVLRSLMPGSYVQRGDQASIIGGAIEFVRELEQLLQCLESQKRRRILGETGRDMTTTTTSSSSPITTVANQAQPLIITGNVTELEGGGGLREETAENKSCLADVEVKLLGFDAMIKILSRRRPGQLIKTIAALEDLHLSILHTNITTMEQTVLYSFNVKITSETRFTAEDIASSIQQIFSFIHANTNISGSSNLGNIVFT
Briefly: ITC; Malvern PEAQ-ITC; 40 µM SCRM/SCRMΔC injected into 4 µM SPCH/MUTE/FAMA; PBS, pH 7.2 (Table S1; methods: pH 7.4); 25 °C; single binding site model; means of two experiments.

Assay [2] deals with T2, SPCH (ΔNSPCH, 98-364) (Arabidopsis thaliana, UniProt Q700C7 98-364).
T2 construct: the only recombinant SPCH with bHLH domain that the methods list is ΔNSPCH (98-364); source: E. coli BL21, purified (glutathione resin, thrombin, Superdex-200); not shown: GST, N-terminal, cleaved
T2 sequence (looked up): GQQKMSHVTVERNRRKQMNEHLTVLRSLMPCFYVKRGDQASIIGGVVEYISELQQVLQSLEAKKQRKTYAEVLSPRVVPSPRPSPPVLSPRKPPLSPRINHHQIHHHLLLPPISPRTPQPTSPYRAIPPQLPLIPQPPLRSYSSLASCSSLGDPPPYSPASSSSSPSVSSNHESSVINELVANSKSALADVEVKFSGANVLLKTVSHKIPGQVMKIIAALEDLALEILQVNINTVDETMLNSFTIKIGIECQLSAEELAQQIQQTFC
Described as above.

Assay [3] deals with B5. In words: ITC; Malvern PEAQ-ITC, 25 °C, PBS pH 7.4; 40 μM SCRM/SCRMΔC injected into 4 μM SPCH/MUTE/FAMA; single binding site model. (In general: ITC needs no label: the signal is the heat of the interaction.)
The target in assay [4] is B6. The assay is described as above.
The target of assay [5] is T3, SCRM ACTL (405-494) (Arabidopsis thaliana, UniProt Q9LSE2 405-494).
T3 construct: SCREAM (SCRM, ICE1), Arabidopsis thaliana, At3G26744, ACT-like domain, residues 405-494; also called SCRM ACTL domain; source: E. coli BL21, purified (glutathione resin, thrombin, Superdex-200); not shown: GST, N-terminal, cleaved
T3 sequence (looked up): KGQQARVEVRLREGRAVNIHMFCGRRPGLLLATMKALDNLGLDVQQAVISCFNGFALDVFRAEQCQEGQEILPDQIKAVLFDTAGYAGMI
In words: ITC; Malvern PEAQ-ITC, 25 °C, PBS pH 7.4; 150 μM SCRM ACTL/SCRM L484F ACTL injected into 15 μM SPCH ACTL/MUTE ACTL.

The target in assay [6] is T4, SPCH-ACTL (285-364) (Arabidopsis thaliana, UniProt Q700C7 285-364).
T4 construct: also called SPCH ACTL domain; source: E. coli BL21, purified (glutathione resin, thrombin, Superdex-200); not shown: GST, N-terminal, cleaved
T4 sequence (looked up): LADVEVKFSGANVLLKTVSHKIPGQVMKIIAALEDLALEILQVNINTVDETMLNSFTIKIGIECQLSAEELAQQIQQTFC
Briefly: ITC; Malvern PEAQ-ITC; 150 µM SCRM ACTL/SCRM L484F ACTL injected into 15 µM SPCH ACTL/MUTE ACTL; PBS, pH 7.2 (Table S3; methods: pH 7.4); 25 °C; means of two experiments.

Assay [7] has as its target T5, GST-fused SCRMΔC (1-404) (Arabidopsis thaliana, UniProt Q9LSE2 1-404).
T5 construct: SCREAM (SCRM, ICE1), Arabidopsis thaliana, At3G26744, residues 1-404; GST kept for loading on anti-GST probes; also called GST SCRMΔC; SCRM1ΔC; source: E. coli BL21, purified (glutathione agarose resin); not shown: GST, N-terminal, kept
T5 sequence (looked up): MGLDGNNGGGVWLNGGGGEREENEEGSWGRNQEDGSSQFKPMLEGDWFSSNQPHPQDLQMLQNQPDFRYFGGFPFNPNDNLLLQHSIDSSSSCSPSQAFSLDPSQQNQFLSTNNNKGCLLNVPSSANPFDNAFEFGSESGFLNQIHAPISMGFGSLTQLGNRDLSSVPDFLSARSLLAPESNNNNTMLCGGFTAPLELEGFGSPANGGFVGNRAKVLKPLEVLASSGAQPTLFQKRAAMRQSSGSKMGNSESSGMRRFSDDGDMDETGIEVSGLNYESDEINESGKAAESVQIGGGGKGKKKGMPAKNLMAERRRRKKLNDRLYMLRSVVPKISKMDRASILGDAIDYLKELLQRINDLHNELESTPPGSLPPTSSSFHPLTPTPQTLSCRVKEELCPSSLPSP
In words: BLI; Octet Red96; anti-GST probes loaded with 500 nM GST-SCRM or GST-SCRMΔC; SPCH/MUTE/FAMA as analyte at 3.12-200 nM; 30 °C; 1x PBS with 0.02% Tween 20; no DNA; 1:1 model. In general terms: Biolayer interferometry detects binding as a change in optical thickness at a sensor tip.

For assay [8], the target named is T6, GST-fused SCRM (1-494) (Arabidopsis thaliana, UniProt Q9LSE2 1-494).
T6 construct: SCREAM (SCRM, ICE1), Arabidopsis thaliana, At3G26744, residues 1-494; GST kept for loading on anti-GST probes; also called GST SCRM; GST-tagged SCRM; source: E. coli BL21, purified (glutathione agarose resin); not shown: GST, N-terminal, kept
T6 sequence (looked up): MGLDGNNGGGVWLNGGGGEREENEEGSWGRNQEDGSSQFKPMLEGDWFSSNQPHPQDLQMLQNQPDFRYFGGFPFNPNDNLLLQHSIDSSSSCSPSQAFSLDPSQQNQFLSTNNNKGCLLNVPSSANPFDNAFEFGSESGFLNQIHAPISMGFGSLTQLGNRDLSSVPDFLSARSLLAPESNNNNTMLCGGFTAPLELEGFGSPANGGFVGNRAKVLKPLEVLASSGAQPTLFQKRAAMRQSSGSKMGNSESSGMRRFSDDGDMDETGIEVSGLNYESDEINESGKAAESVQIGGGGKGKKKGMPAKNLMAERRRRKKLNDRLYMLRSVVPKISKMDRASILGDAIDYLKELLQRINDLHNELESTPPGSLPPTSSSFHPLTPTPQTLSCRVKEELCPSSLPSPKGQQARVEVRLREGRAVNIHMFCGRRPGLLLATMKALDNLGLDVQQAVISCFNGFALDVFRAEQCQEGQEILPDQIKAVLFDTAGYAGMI
The assay is described as above.

The target in assay [9] is T7, SCRM (1-494), recombinant (Arabidopsis thaliana, UniProt Q9LSE2 1-494).
T7 construct: SCREAM (SCRM, ICE1), Arabidopsis thaliana, At3G26744, residues 1-494; the purification methods tell thrombin cleavage; source: E. coli BL21, purified (glutathione resin, thrombin, Superdex-200); not shown: GST, N-terminal, cleaved
T7 sequence (looked up): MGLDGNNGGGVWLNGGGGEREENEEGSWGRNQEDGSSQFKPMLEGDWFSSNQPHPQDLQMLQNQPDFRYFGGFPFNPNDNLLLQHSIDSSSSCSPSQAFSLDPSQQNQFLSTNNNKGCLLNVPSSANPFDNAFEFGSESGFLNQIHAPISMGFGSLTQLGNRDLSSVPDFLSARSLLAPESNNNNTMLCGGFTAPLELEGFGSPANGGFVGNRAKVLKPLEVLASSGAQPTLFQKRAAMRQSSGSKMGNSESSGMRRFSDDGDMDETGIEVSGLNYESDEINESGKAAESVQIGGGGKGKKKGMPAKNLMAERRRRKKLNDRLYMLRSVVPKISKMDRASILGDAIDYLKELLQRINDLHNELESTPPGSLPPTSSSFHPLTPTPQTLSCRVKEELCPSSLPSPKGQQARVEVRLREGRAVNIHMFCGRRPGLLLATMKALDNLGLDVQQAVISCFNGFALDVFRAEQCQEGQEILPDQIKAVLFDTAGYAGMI
In words: ITC; Malvern PEAQ-ITC, 25 °C, PBS pH 7.4; 40 μM SCRM/SCRMΔC injected into 4 μM SPCH/MUTE/FAMA; single binding site model.

Assay [10] deals with B2. The description is as above.

B1: SCRMΔC (1-404), GST removed (domain or fragment, Arabidopsis thaliana, UniProt Q9LSE2 1-404, looked up)
chain: MGLDGNNGGGVWLNGGGGEREENEEGSWGRNQEDGSSQFKPMLEGDWFSSNQPHPQDLQMLQNQPDFRYFGGFPFNPNDNLLLQHSIDSSSSCSPSQAFSLDPSQQNQFLSTNNNKGCLLNVPSSANPFDNAFEFGSESGFLNQIHAPISMGFGSLTQLGNRDLSSVPDFLSARSLLAPESNNNNTMLCGGFTAPLELEGFGSPANGGFVGNRAKVLKPLEVLASSGAQPTLFQKRAAMRQSSGSKMGNSESSGMRRFSDDGDMDETGIEVSGLNYESDEINESGKAAESVQIGGGGKGKKKGMPAKNLMAERRRRKKLNDRLYMLRSVVPKISKMDRASILGDAIDYLKELLQRINDLHNELESTPPGSLPPTSSSFHPLTPTPQTLSCRVKEELCPSSLPSP
notes: SCREAM (SCRM, ICE1), Arabidopsis thaliana, At3G26744, residues 1-404 (lacks the C-terminal ACTL domain); Used for ITC; the methods tell thrombin cleavage of the GST-fused proteins in general, not for ITC by name; also called SCRM1ΔC; source: E. coli BL21, purified (glutathione resin, thrombin, Superdex-200); not shown: GST, N-terminal, cleaved
For the molecule B1, the “stoichiometry N” value in [1] came to 0.96; in [2] it was 0.95.

Turning to B2, the “stoichiometry N” value in assay [3] and in assay [4] was 1 each time.

B3: MUTE-ACTL (114-202) (domain or fragment, Arabidopsis thaliana, UniProt Q9M8K6 114-202, looked up)
chain: HANVEAKISGSNVVLRVVSRRIVGQLVKIISVLEKLSFQVLHLNISSMEETVLYFFVVKIGLECHLSLEELTLEVQKSFVSDEVIVSTN
notes: MUTE, Arabidopsis thaliana, ACT-like domain, residues 114-202; source: E. coli BL21, purified (glutathione resin, thrombin, Superdex-200); not shown: GST, N-terminal, cleaved
For B3, the Kd in [5] is 5100 nM.

B4: SCRM ACTL L484F (405-494) (domain or fragment, Arabidopsis thaliana, UniProt Q9LSE2 405-494, looked up)
chain: KGQQARVEVRLREGRAVNIHMFCGRRPGLLLATMKALDNLGLDVQQAVISCFNGFALDVFRAEQCQEGQEILPDQIKAVFFDTAGYAGMI
notes: SCREAM (SCRM, ICE1), Arabidopsis thaliana, At3G26744, C-terminal ACT-like domain, residues 405-494, with L484F (the methods print L485F); also called SCRM L484F ACTL; source: E. coli BL21, purified (glutathione resin, Superdex-200)
With B4, in assay [6], the “stoichiometry N” value was 0.85.

Regarding B5, the Kd in assay [7] worked out at 68 ± 5.5 nM; in assay [8], 5.2 ± 1.1 nM; in [9], 6.5 ± 1.6 nM; in assay [10], 61 ± 4.2 nM.

Consider B6, for which the equilibrium dissociation constant (Kd) is 52 ± 3.6 nM in [7], 8.2 ± 2.1 nM in assay [8], 9.6 ± 1.4 nM in assay [9] and 68 ± 5.2 nM in assay [10].
